# Values quoted from earlier work as cited in paper PMC7302117.
# Target: ELK1 (Homo sapiens) (UniProt P19419)
# UniProt P19419, sequence (P19419 whole entry): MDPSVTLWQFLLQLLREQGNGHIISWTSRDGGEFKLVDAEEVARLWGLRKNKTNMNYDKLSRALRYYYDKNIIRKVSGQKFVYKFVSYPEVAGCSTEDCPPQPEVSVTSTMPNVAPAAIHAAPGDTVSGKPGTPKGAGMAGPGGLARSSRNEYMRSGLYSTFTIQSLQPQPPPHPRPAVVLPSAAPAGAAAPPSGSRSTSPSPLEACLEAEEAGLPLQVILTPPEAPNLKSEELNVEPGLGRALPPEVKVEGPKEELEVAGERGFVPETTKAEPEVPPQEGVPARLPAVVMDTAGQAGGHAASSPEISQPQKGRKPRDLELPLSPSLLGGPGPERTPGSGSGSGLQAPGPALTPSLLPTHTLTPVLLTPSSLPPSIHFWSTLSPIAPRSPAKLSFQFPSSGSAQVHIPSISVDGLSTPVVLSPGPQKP
substance,measurement,value
Androgen receptor A/B domain (from UniProt P10275),Kd,20 nM
